Holding throughout (assay): cell-based or functional assay
The target of experiment [1] is αMβ2 (Mac-1; CD11b/CD18) on human peripheral blood monocytes (human) (UniProt P11215).
The target in experiment [2] is CD54 (ICAM-1) on A375 human melanoma cells (human) (UniProt P05362).
For experiment [3], the target named is αLβ2 (LFA-1; CD11a/CD18) on human peripheral blood leukocytes (human) (UniProt P20701).

The values that follow come from patent publication US20070060522A1.

CD54 (ICAM-1) on A375 human melanoma cells (human), sequence (P05362 28-532): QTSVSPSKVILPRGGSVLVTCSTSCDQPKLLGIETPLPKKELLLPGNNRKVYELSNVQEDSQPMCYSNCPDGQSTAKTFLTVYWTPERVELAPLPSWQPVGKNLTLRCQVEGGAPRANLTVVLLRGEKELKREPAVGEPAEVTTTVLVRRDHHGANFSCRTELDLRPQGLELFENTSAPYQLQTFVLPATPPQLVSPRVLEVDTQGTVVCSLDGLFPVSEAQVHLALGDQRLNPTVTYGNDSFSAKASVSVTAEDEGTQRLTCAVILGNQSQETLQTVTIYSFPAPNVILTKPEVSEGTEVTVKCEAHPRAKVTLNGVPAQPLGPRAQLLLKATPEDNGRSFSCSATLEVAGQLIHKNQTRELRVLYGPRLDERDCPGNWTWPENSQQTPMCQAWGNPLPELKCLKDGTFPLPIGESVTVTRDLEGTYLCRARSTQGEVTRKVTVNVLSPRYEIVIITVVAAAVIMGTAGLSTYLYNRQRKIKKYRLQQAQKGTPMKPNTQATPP

Consider “blocking monoclonal anti-αMβ2 antibody (clone ICRF44)”, for which, in experiment [1], the inhibition of monocyte adherence to sFn pretreated tumor cells came out at 80% and the inhibition of monocyte adherence to untreated A375 cells came to 22.5%.
On to “soluble fibrin (sFn) (from UniProt P02671 36-629; P02675 45-491; P02679 27-453) (ligand)”, for which the monocyte adherence when monocytes and A375 cells were both pre-treated with sFn, static microplate assay (untreated control 32.9+1.3%) in experiment [2] was determined as 15.9%. Besides, in experiment [1], the adherence of sFn treated monocytes to untreated A375 cells, static microplate assay (untreated control 32.9+1.3%) is 38.8% and the monocyte adherence to sFn pre-treated A375 cells, static microplate assay (untreated control 32.9+1.3%) worked out at 68.5%.
Regarding “murine anti-human monoclonal blocking antibody against CD54 (clone 84H10)”, in experiment [2], the inhibition of adherence of sFn pretreated monocytes to A375 cells worked out at 86% and the inhibition of adherence of untreated monocytes to A375 cells stood at 53%.
“murine anti-human monoclonal blocking antibody against αLβ2 (clone 25.3)”: in experiment [3], the inhibition of monocyte adherence to sFn pre-treated A375 cells came to 23% and the inhibition of monocyte adherence to untreated A375 cells was 80%.
